The supplement of paper PMC11246515
± gives the standard deviation of the averaged measurements.

Assay: total protein half-life in vivo (active degradation + dilution); higher = more stable protein
[1] = E. coli NCM3722 delta-clpP delta-lon delta-hslV, growth: N-lim chemostat, doubling time 6 h
[2] = E. coli NCM3722 delta-clpP, growth: N-lim chemostat, doubling time 6 h
[3] = E. coli NCM3722 delta-hslV, growth: N-lim chemostat, doubling time 6 h
[4] = E. coli NCM3722 delta-lon, growth: N-lim chemostat, doubling time 6 h
[5] = E. coli NCM3722 delta-smpB, growth: N-lim chemostat, doubling time 6 h
[6] = wild type E. coli NCM3722, growth: C-lim chemostat, doubling time 3 h
[7] = wild type E. coli NCM3722, growth: C-lim chemostat, doubling time 6 h
[8] = wild type E. coli NCM3722, growth: C-lim chemostat, doubling time 12 h
[9] = wild type E. coli NCM3722, growth: N-lim chemostat, doubling time 6 h
[10] = wild type E. coli NCM3722, growth: N-lim chemostat, doubling time 12 h
[11] = wild type E. coli NCM3722, growth: P-lim chemostat, doubling time 6 h
[12] = wild type E. coli NCM3722, growth: P-lim chemostat, doubling time 12 h

Sequence | total protein half-life in vivo [1] [h] | total protein half-life in vivo [2] [h] | total protein half-life in vivo [3] [h] | total protein half-life in vivo [4] [h] | total protein half-life in vivo [5] [h] | total protein half-life in vivo [6] [h] | total protein half-life in vivo [7] [h] | total protein half-life in vivo [8] [h] | total protein half-life in vivo [9] [h] | total protein half-life in vivo [10] [h] | total protein half-life in vivo [11] [h] | total protein half-life in vivo [12] [h]
MSENSIRLTQYSHGAGCGCKISPKVLETILHSEQAKFVDPNLLVGNETRDDAAVYDLGNGTSVISTTDFFMPIVDNPFDFGRIAATNAISDIFAMGGKPIMAIAILGWPINKLSPEIAREVTEGGRYACRQAGIALAGGHSIDAPEPIFGLAVTGIVPTERVKKNSTAQAGCKLFLTKPLGIGVLTTAEKKSLLKPEHQGLATEVMCRMNIAGASFANIEGVKAMTDVTGFGLLGHLSEMCQGAGVQARVDYEAIPKLPGVEEYIKLGAVPGGTERNFASYGHLMGEMPREVRDLLCDPQTSGGLLLAVMPEAENEVKATAAEFGIELTAIGELVPARGGRAMVEIR | 3.58 ± 0.34 | 2.94 ± 0.2 | 2.5242 ± 0.00055 | 3.85 ± 0.73 | 2.76 ± 0.077 | 3.01 ± 0.23 | 4.95 ± 0.13 | 8.899 ± 0.067 | 2.816 ± 0.0089 | 3.67 ± 0.27 | 5.34 ± 0.23 | 10.1 ± 0.65
MSEPQRLFFAIDLPAEIREQIIHWRATHFPPEAGRPVAADNLHLTLAFLGEVSAEKEKALSLLAGRIRQPGFTLTLDDAGQWLRSRVVWLGMRQPPRGLIQLANMLRSQAARSGCFQSNRPFHPHITLLRDASEAVTIPPPGFNWSYAVTEFTLYASSFARGRTRYTPLKRWALTQ | 5.3 ± 0.55 | 4.8 | – | – | 4.66 ± 0.56 | 3.11 | 6.25 ± 0.27 | 11 | 5.03 ± 0.89 | 8.49 ± 0.71 | 5.55 ± 0.13 | 11.33 ± 0.097
MSEQETRGANEAIDFNDELRNRREKLAALRQQGVAFPNDFRRDHTSDQLHEEFDAKDNQELESLNIEVSVAGRMMTRRIMGKASFVTLQDVGGRIQLYVARDSLPEGVYNDQFKKWDLGDIIGARGTLFKTQTGELSIHCTELRLLTKALRPLPDKFHGLQDQEVRYRQRYLDLIANDKSRQTFVVRSKILAAIRQFMVARGFMEVETPMMQVIPGGASARPFITHHNALDLDMYLRIAPELYLKRLVVGGFERVFEINRNFRNEGISVRHNPEFTMMELYMAYADYHDLIELTESLFRTLAQEVLGTTKVTYGEHVFDFGKPFEKLTMREAIKKYRPETDMADLDNFDAAKALAESIGITVEKSWGLGRIVTEIFDEVAEAHLIQPTFITEYPAEVSPLARRNDVNPEITDRFEFFIGGREIGNGFSELNDAEDQAERFQEQVNAKAAGDDEAMFYDEDYVTALEYGLPPTAGLGIGIDRMIMLFTNSHTIRDVILFPAMRPQK [P0A8N5] | 5.8 ± 0.78 | 5.16 ± 0.085 | 4.88 ± 0.071 | 5.06 ± 0.16 | 4.87 ± 0.087 | 3.05 ± 0.11 | 5.71 ± 0.27 | 9.948 ± 0.028 | 4.74 ± 0.36 | 7.77 ± 0.82 | 5.55 ± 0.27 | 11.2 ± 0.22
MSEQHAQGADAVVDLNNELKTRREKLANLREQGIAFPNDFRRDHTSDQLHAEFDGKENEELEALNIEVAVAGRMMTRRIMGKASFVTLQDVGGRIQLYVARDDLPEGVYNEQFKKWDLGDILGAKGKLFKTKTGELSIHCTELRLLTKALRPLPDKFHGLQDQEARYRQRYLDLISNDESRNTFKVRSQILSGIRQFMVNRGFMEVETPMMQVIPGGAAARPFITHHNALDLDMYLRIAPELYLKRLVVGGFERVFEINRNFRNEGISVRHNPEFTMMELYMAYADYKDLIELTESLFRTLAQDILGKTEVTYGDVTLDFGKPFEKLTMREAIKKYRPETDMADLDNFDSAKAIAESIGIHVEKSWGLGRIVTEIFEEVAEAHLIQPTFITEYPAEVSPLARRNDVNPEITDRFEFFIGGREIGNGFSELNDAEDQAQRFLDQVAAKDAGDDEAMFYDEDYVTALEHGLPPTAGLGIGIDRMVMLFTNSHTIRDVILFPAMRPVK [P0A8N3] | 5.76 ± 0.38 | 5.45 ± 0.16 | 5.23 ± 0.14 | 5.58 ± 0.26 | 5.19 ± 0.12 | 3.07 ± 0.11 | 5.894 ± 0.022 | 10.3 ± 0.74 | 4.98 ± 0.45 | 8.8 ± 0.29 | 5.67 ± 0.29 | 10.6 ± 0.79
MSEQNNTEMTFQIQRIYTKDISFEAPNAPHVFQKDWQPEVKLDLDTASSQLADDVYEVVLRVTVTASLGEETAFLCEVQQGGIFSIAGIEGTQMAHCLGAYCPNILFPYARECITSMVSRGTFPQLNLAPVNFDALFMNYLQQQAGEGTEEHQDA [P0AG86] | 5.809 ± 0.028 | 5.336 ± 0.019 | – | 6.08 ± 0.59 | 5.16 ± 0.59 | 2.91 ± 0.79 | 7.35 ± 0.53 | 11.2 ± 1.2 | 5.17 ± 0.34 | 9.15 | – | 13.8 ± 2.5
MSESLRIIFAGTPDFAARHLDALLSSGHNVVGVFTQPDRPAGRGKKLMPSPVKVLAEEKGLPVFQPVSLRPQENQQLVAELQADVMVVVAYGLILPKAVLEMPRLGCINVHGSLLPRWRGAAPIQRSLWAGDAETGVTIMQMDVGLDTGDMLYKLSCPITAEDTSGTLYDKLAELGPQGLITTLKQLADGTAKPEVQDETLVTYAEKLSKEEARIDWSLSAAQLERCIRAFNPWPMSWLEIEGQPVKVWKASVIDTATNAAPGTILEANKQGIQVATGDGILNLLSLQPAGKKAMSAQDLLNSRREWFVPGNRLV | 5.19 ± 0.35 | 4.68 ± 0.25 | 5.38 ± 1 | 6.55 ± 0.13 | 4.49 ± 0.29 | 3.118 ± 0.012 | 5.91 ± 0.49 | 8.28 ± 1.2 | 4.84 ± 0.38 | 7.62 ± 0.9 | 5.62 ± 0.28 | 10.1 ± 0.96
MSETKNELEDLLEKAATEPAHRPAFFRTLLESTVWVPGTAAQGEAVVEDSALDLQHWEKEDGTSVIPFFTSLEALQQAVEDEQAFVVMPVRTLFEMTLGETLFLNAKLPTGKEFMPREISLLIGEEGNPLSSQEILEGGESLILSEVAEPPAQMIDSLTTLFKTIKPVKRAFICSIKENEEAQPNLLIGIEADGDIEEIIQATGSVATDTLPGDEPIDICQVKKGEKGISHFITEHIAPFYERRWGGFLRDFKQNRII [P0AFZ1] | 3.64 | 3.49 ± 0.42 | 2.73 | 3.96 ± 0.78 | 2.39 ± 0.091 | 2.44 | 4.53 ± 0.38 | 6.76 ± 0.27 | 2.81 | 4.38 | 3.65 | 7.61
